Here are results for five molecules from patent publication US20160024208A1 (Regeneron, published 2016).

The target of assay [1] is T1, full-length human Nav1.7 fused at its N-terminus to GFP, expressed in HEK293 cells (human, UniProt Q15858 1-1988). The assay can be described thus: cell-based or functional assay.
Assay [2] has as its target T2, N-Term Biotin Nav1.7 (3-1) peptide, mouse (mouse, not fully specified; N-terminal biotin attached via a G4S linker).
T2 construct: Synthetic peptide; also called Mouse Nav1.7 3-1 N-term biotin
T2 peptide: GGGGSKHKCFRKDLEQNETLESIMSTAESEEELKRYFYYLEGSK
The assay can be described thus: ELISA on coated peptide. The protocol: Anti-Naᵥ 1.7 antibodies were tested for their ability to bind to the Naᵥ 1.7 peptides. The various peptides were coated overnight onto 96-well Nunc Immunosorp plates at a concentration of 4 μg/mL in PBS, followed by blocking for 1 hour in a suitable blocking agent. For biotinylated peptides, avidin was first coated on Nunc Immunosorp plates at 2 μg/mL in PBS overnight, followed by blocking as described, and the plate was then coated with biotinylated peptides at a concentration of 0.4 μg/mL and incubated for 1 hour at room temperature. Purified anti-Naᵥ 1.7 antibodies were diluted to a final concentration of 0.1 μg/mL and 1.0 μg/mL and added to the wells of the coated microtiter plates followed by incubation for 1 hour at room temperature. Bound antibodies were detected with horseradish peroxidase (HRP) conjugated anti-mouse or anti-human IgG (Jackson Immuno Research Lab, West Grove, Pa.) depending on the antibody species and developed by colorimetric response using tetramethylbenzidine (TMB) substrate (BD Biosciences). Absorbance was read at OD₄₅₀ on a plate reader for 0.1 second.
Values in Table 11 represent absolute binding ranges (at OD450) to plate-coated peptides for antibodies added at 1 μg/ml as follows: OD450<0.2: −; 0.2<OD450<1: +; 1<OD450<2: ++; 2<OD450<4: +++; NT: Not Tested.
Background: An ELISA detects its analyte on a solid surface through an enzyme-linked reagent.

Assay [3] concerns the target T3, Native Nav1.7 (3-1) peptide, human (human).
T3 construct: Synthetic peptide (Celtek), unbiotinylated; also called Human Nav1.7 3-1 native; Nav1.7 3-1 native peptide
T3 peptide: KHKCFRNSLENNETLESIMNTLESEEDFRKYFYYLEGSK
The assay can be described thus: SPR, captured antibody, peptide analyte. The gist of the method:
(§1)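 Peptide analytes flowed at multiple concentrations over anti-Nav1.7 antibodies held by an anti-Fc capture surface. After reference-surface and buffer-blank subtraction, a global 1:1 Langmuir fit gave ka and kd, with KD as kd/ka and dissociative half-life as ln2/kd.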
On the technique in general: SPR reads the build-up and loss of mass on a sensor chip optically.

The target of assay [4] is T4, N-Term Biotin Nav1.7 (3-1) peptide, mulatta (mulatta (monkey), not fully specified; N-terminal biotin attached via a G4S linker).
T4 construct: Synthetic peptide; also called Mulatta Nav1.7 3-1 N-term biotin; monkey
T4 peptide: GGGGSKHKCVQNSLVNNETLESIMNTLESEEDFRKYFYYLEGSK
The assay can be described thus: SPR, captured antibody, peptide analyte. The gist of the method:
as §1

Assay [5] concerns the target T2, N-Term Biotin Nav1.7 (3-1) peptide, …. The assay can be described thus: SPR, captured antibody, peptide analyte. The gist of the method: as §1
Assay [6] addresses T5, C-term Biotin Nav1.7 (3-1) peptide, human (human, not fully specified; C-terminal biotin attached via a G4S linker).
T5 construct: Synthetic peptide; also called Human Nav1.7 3-1 C-term biotin
T5 peptide: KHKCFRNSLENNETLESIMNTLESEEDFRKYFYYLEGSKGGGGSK
The assay can be described thus: SPR, captured biotin-peptide, antibody analyte.

The target of assay [7] is T4, N-Term Biotin Nav1.7 (3-1) peptide, …. The assay can be described thus: ELISA on coated peptide, antibody 1 ug/ml, OD450 grade. The gist of the method: (§2)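 Binding graded from absorbance at OD450 for antibodies applied at 1 μg/ml (− below 0.2, + 0.2–1, ++ 1–2, +++ 2–4; NT not tested); antibodies were also run at 0.1 μg/mL. Biotin-peptides at 0.4 μg/mL on avidin-coated plates, other peptides at 4 μg/mL; 1 h RT binding; HRP anti-IgG/TMB detection.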

The target of assay [8] is T6, N-Term Biotin-Nav1.7 (3-1) peptide, human (human, not fully specified; N-terminal biotin attached via a G4S linker).
T6 construct: ELISA peptide
T6 peptide: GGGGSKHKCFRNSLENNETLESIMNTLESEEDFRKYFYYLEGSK
Described as above. The gist of the method: as §2

Assay [9] deals with T1, full-length human Nav1.7 fused at its …. The assay can be described thus: flow cytometry; % stained hNav1.7-GFP-HEK293 minus parental HEK293. The protocol: The binding of anti-Naᵥ 1.7 human antibodies to full-length Naᵥ 1.7 expressed in HEK293 cells was determined by flow cytometry (FACS). HEK293 cells were stably-transfected with full-length human Nav1.7 fused at its N-terminus to the green fluorescent protein (GFP) to generate cell line hNaᵥ 1.7-GFP-HEK293. Antibody binding to the transfected cells overexpressing Naᵥ 1.7 was compared to binding to the parental HEK293 cell line. To perform the binding experiments, adherent cells were collected using 1 mM EDTA in PBS, washed and re-suspended in cold PBS containing 5% FBS. For each binding experiment, the anti-Naᵥ 1.7 antibody (at concentrations ranging from 1 nM to 13 nM), was added to 250,000 cells in 500 μL of PBS with 5% FBS. After incubation for 20 minutes on ice, the secondary antibody, recognizing either human-Fc and conjugated to cyanine 5 (Cy5) or recognizing mouse-Fc and conjugated to allophyocyanin (APC), was then added to the cell mixture at a final secondary antibody concentration of 1.7 nM. After incubating for 20 minutes on ice, the cells were resuspended in PBS+5% FBS and then sorted and analyzed on a flow cytometer to determine relative binding by the candidate antibodies. For FACS analysis, gating was applied to examine only healthy live cells in the antibody binding experiments, and percentage stained was recorded. Staining of secondary antibodies alone to Naᵥ 1.7-GFP-HEK293 cells gave low background signals (1-2%). Specific binding was measured as the percent binding to Naᵥ 1.7-GFP-HEK293 cells minus percent binding to parental HEK293 cells.
A general note: In flow cytometry, cells or beads pass a laser one at a time.

For assay [10], the target named is T7, Native Nav1.7 (3-1) peptide, rat (rat).
T7 construct: Synthetic peptide; also called Rat Nav1.7 3-1 native
T7 peptide: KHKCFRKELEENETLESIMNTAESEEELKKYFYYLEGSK
The assay can be described thus: SPR, captured antibody, peptide analyte. The gist of the method:
as §1

Assay [11] deals with T1, full-length human Nav1.7 fused at its …. The assay can be described thus: flow cytometry on Nav1.7-GFP-HEK293, antibody 3.3 nM. The protocol: (§3) The specificity of binding of anti-Naᵥ 1.7 human antibodies to full-length Naᵥ 1.7 expressed in HEK293 cells was determined by peptide competition experiments using flow cytometry.
(§4) HEK293 cells stably-transfected with full-length Naᵥ 1.7 fused at its N-terminus to GFP (Naᵥ 1.7-GFP-HEK293) were used for this study. Antibody binding to the transfected cells overexpressing Naᵥ 1.7 was compared to binding in the presence of excess peptide and to binding to the parental HEK293 cell line. To perform the binding experiments, adherent cells were collected using 1 mM EDTA in PBS, washed and re-suspended in cold PBS containing 5% FBS. For each binding experiment the anti-Naᵥ 1.7 antibody at a final concentration of 3.3 nM (in PBS/5% FBS) was added to cells either directly or after incubating for 10 min on ice with a 1000-fold molar excess (3.3 uM final concentration in PBS/5% FBS) of synthetic peptide with sequence corresponding to the loop specificity of the antibody. The antibodies designated as H4H391P, H4H443B, H4H448B, and H1M797N were preincubated as described above with a synthetic peptide corresponding to EC loop 3-1 (amino acid residues 269-338 of SEQ ID NO: 670), whereas the antibodies designated as H4H468P and H1 M852N were preincubated with a synthetic peptide corresponding to EC loop 3-3 (amino acid residues 1333-1382 of SEQ ID NO: 670). The antibody or antibody-peptide mixture was then allowed to incubate with cells for 20 min on ice, followed by addition of 500 uL of cold PBS/5% FBS. Cells were collected by centrifugation, resuspended in 500 uL of cold PBS/5% FBS, and then secondary antibody matched to the antibody isotype (either anti-human-Fc conjugated to Cyanine 5 or anti-mouse-Fc conjugated to allophyococyanin) was added. Binding was detected on the flow cytometry instrument and analyzed as percent binding using the instrument software. For FACS analysis appropriate gating was applied so that only healthy, live cells were counted. Background staining of secondary antibodies alone to Naᵥ 1.7-GFP-HEK293 cells was tested and recorded for all samples, and results ranged between 1-2% binding.

Assay [12] shares this target. The assay can be described thus: flow cytometry on Nav1.7-GFP-HEK293, antibody 3.3 nM preincubated with 3.3 uM EC 3-1 peptide as competitor. The protocol:
as §3, §4

B1: H4H362B (antibody, V domains shown)
VH: QVQLVESGAEVKKPGASVKVSCKASGYTFTTYGISWVRQAPGQGLEWMGWISAYNGKTNYAQKFQGRVTMTTDTSTNTAYMELRSLRFDDTAVYYCARDGGTPFYYWGQGTLVTVSS
VL: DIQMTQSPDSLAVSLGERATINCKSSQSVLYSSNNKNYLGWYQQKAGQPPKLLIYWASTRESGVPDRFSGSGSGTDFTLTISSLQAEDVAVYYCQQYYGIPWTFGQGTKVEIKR
As a reminder, the Kd is the constant that tells how readily two partners part at equilibrium. The low end stands for a tighter complex, the high end for a looser complex. Regarding B1, the “Current blocking (Average % inhibition), IonWorks Quattro, 223 nM antibody” value in [1] is 25.5%. The OD450 in [2] was less than 0.2 od; in assay [7], 2 to 4 od; in [8], 2 to 4 od. Besides, the Kd worked out at 0.612 nM in assay [3], 0.257 nM in [4] and 0.218 nM in assay [6]. Further, the t1/2 in assay [3] was found to be 8.6 min; in assay [4], 36.1 min; in assay [6], 101 min. In assay [5], the binding result is given as “no binding”. Also, the “% Binding Nav1.7” value in assay [9] stood at 3.7%.

B2: H4H391P (antibody, V domains shown)
VH: QVQLVESGGGVVQPGRSLRLSCAASGFTFSSYGMHWVRQAPGKGLEWVAVISYEGSNKHYADSVKGRFTISRDNSKNTLYLQMNSLRAEDTAVFYCAQSRGYSYGLGYWGQGTLVTVSS
VL: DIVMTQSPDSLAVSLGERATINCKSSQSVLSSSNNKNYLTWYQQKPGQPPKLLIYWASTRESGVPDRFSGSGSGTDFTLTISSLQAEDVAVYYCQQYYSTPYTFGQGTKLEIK
For the molecule B2, the Kd is 13.6 nM in [3], 2.18 nM in assay [4] and 0.802 nM in assay [6]. Besides, the t1/2 amounted to 8.1 min in assay [3], 36.1 min in [4] and 64.6 min in assay [6]. Also, the binding result in [5] and in assay [10] was “no binding” in each case. In assay [11], the “% Binding Nav1.7 (Stable Line)” value was 7.8%. Moreover, the “% Binding Nav1.7” value in [9] turned out to be 14.3%. In addition, the “% Binding Nav1.7 + 1000x Peptide (Competition Binding)” value (from here on “% Binding Nav1.7 + 1000x Peptide”) in assay [12] was 2.6%.

B3: H4H408B (antibody, V domains shown)
VH: QVQLVESGGGVVQPGRSLRLSCAASGFTFSSYGMHWVRQAPGKGLEWVAVISYQESNKHYVDSVKGRFTISRDNSKNTLYLQMNSLRAEDTAVYYCAQSRGYSYGLGYWGQGTLVTVSS
VL: DIQMTQSPSSLSASVGDRVTITCRASQGIRNDLGWYQQKPGKAPKRLIYAASSLQSGVPSRFSGSGSGTEFTLTISSLQPEDFATYYCQQHNSYPLTFGQGTKVEIKR
In [2], B3 displayed an OD450 of less than 0.2 od. Further, the binding result in [5] is given as “no binding”.

B4: H1M994N (antibody, V domains shown)
VH: QVQLVESGGGVVQPGRSLRLSCAASGFTFSSYGMHWVRQAPGKGLEWVAVISYDGNNKHFADSVKGRFTISRDNSKNTLNLQMNSLRAEDRAVYYCARGASGFVLDIWGQGTMVTVSS
VL: DIVMTQTPLSSPVTLGQPASISCRSSQSLVRSDGNTYLSWLQQRPGQPPRLLIYKISNRFSGVPDRFSGSGAGTDFTLKISRVEAEDVGIYFCMQTTQFPFTFGPGTKVDIK
notes: Hybridoma-derived
As to B4, the “% Binding Nav1.7 (Stable Line)” value in [11] came out at 93%. Also, in [9], the “% Binding Nav1.7” value is 36%. The “% Binding Nav1.7 + 1000x Peptide” value in assay [12] is 33.4%.

B5: H1M826N (antibody, V domains shown)
VH: QVQLVESGGGVVQPERSLRLSCAASGFTFSSYGMHWVRQAPGEGLEWVAVISYDGSNTKYADSVRGRFTISRDNSKNMLYLQMNSLRAEDTAVFYCARGYSGYAFDYWGQGILVTVSS
VL: DIVMTQTPLSSPVTLGQPASISCRSSHSLVRSDGNTYLSWLQQRPGQPPRLLIYKISNRFSGVPDRFSGTGAGTDFTLKINRVEAEDVGFYYCMQATQFPFTFGPGTKVDIK
notes: Hybridoma-derived
Turning to B5, the “% Binding Nav1.7 (Stable Line)” value in [11] was 95.6%. Further, the “% Binding Nav1.7” value in [9] came out at 61%. Moreover, the “% Binding Nav1.7 + 1000x Peptide” value in assay [12] amounted to 17.7%.
